No end group written: not given here. *: point of attachment. Myristoyl = CCCCCCCCCCCCCC(=O)*
B1: UNC119B, full-length, C-terminal His6 (natural protein)
chain: not shown
B2: FMNL1 peptide Myr-GNAAGSAEQPAGK-FAM (peptide)
peptide: Myristoyl-GNAAGSAEQPAGK(FAM)

How the values were obtained:
Test in all cases: fluorescence polarisation
[1] = target: UNC119A, full-length, C-terminal His6 (human, UniProt Q13432 1-240)
[2] = target: B1
[3] = target: B2

Myristoyl-GAAASRRRAK(FAM) [NSMF peptide Myr-GAAASRRRAK-FAM]
binding result [1]: binds
binding result [2]: binds

B1
fold lower affinity than to UNC119A [3]: 9.5 fold

Myristoyl-GNAAAAKKGK(FAM) [PKA peptide Myr-GNAAAAKKGK-FAM]
binding result [1]: binds
binding result [2]: binds

B2
binding result [1]: binds
binding result [2]: binds

Myristoyl-GTASSLVSPAGGK(FAM) [NPHP3 peptide Myr-GTASSLVSPAGGK-FAM]
Kd [1]: 0.84 nM
Kd [2]: 0.17 nM

Myristoyl-GGAVSAGEDNDDK(FAM) [PCMTD1 peptide Myr-GGAVSAGEDNDDK-FAM]
Kd [1]: 5.25 nM
Kd [2]: 72.6 nM

Myristoyl-GCTVSAEDK(FAM) [GNAI2 peptide Myr-GCTVSAEDK-FAM]
binding result [1]: binds
binding result [2]: binds

Myristoyl-GAGASAEEKHSRK(FAM) [GNAT1 peptide Myr-GAGASAEEKHSRK-FAM]
binding result [1]: binds
binding result [2]: binds

GCGCSSHPEDK (not fully specified; N-terminal myristoyl on Gly; FAM on the C-terminal Lys) [LCK peptide Myr-GCGCSSHPEDK-FAM]
Kd [2]: 0.37 nM

Reference: paper PMC8246649 (Biochemistry, 2021)
